Measured values reported in patent US20160263155A1, “T CELL RECEPTORS DIRECTED AGAINST THE PREFERENTIALLY EXPRESSED ANTIGEN OF MELANOMA AND USES THEREOF” (LEIDEN UNIVERSITY MEDICAL CENTER, priority 2015, published 2016).

B1: F319A (protein)
chain: GFGDVGALESLRGNADLAYILSMEPCGHCLIINNVNFCRESGLRTRTGSNIDCEKLRRRFSSLHFMVEVKGDLTAKKMVLALLELAQQDHGALDCCVVVILSHGCQASHLQFPGAVYGTDGCPVSVEKIVNIFNGTSCPSLGGKPKLFFIQACGGEQKDHGFEVASTSPEDESPGSNPEPDATPAQEGLRTFDQLDAISSLPTPSDIFVSYSTFPGFVSWRDPKSGSWYVETLDDIFEQWAHSEDLQSLLLRVANAVSVKGIYKQMPGCFNFLRKKLFFKTS
B2: C403S (protein)
chain: GFGDVGALESLRGNADLAYILSMEPCGHCLIINNVNFCRESGLRTRTGSNIDCEKLRRRFSSLHFMVEVKGDLTAKKMVLALLELAQQDHGALDCCVVVILSHGCQASHLQFPGAVYGTDGCPVSVEKIVNIFNGTSCPSLGGKPKLFFIQACGGEQKDHGFEVASTSPEDESPGSNPEPDATPFQEGLRTFDQLDAISSLPTPSDIFVSYSTFPGFVSWRDPKSGSWYVETLDDIFEQWAHSEDLQSLLLRVANAVSVKGIYKQMPGSFNFLRKKLFFKTS
B3: A331K (protein)
chain: GFGDVGALESLRGNADLAYILSMEPCGHCLIINNVNFCRESGLRTRTGSNIDCEKLRRRFSSLHFMVEVKGDLTAKKMVLALLELAQQDHGALDCCVVVILSHGCQASHLQFPGAVYGTDGCPVSVEKIVNIFNGTSCPSLGGKPKLFFIQACGGEQKDHGFEVASTSPEDESPGSNPEPDATPFQEGLRTFDQLDKISSLPTPSDIFVSYSTFPGFVSWRDPKSGSWYVETLDDIFEQWAHSEDLQSLLLRVANAVSVKGIYKQMPGCFNFLRKKLFFKTS
B4: C403T (protein)
chain: GFGDVGALESLRGNADLAYILSMEPCGHCLIINNVNFCRESGLRTRTGSNIDCEKLRRRFSSLHFMVEVKGDLTAKKMVLALLELAQQDHGALDCCVVVILSHGCQASHLQFPGAVYGTDGCPVSVEKIVNIFNGTSCPSLGGKPKLFFIQACGGEQKDHGFEVASTSPEDESPGSNPEPDATPFQEGLRTFDQLDAISSLPTPSDIFVSYSTFPGFVSWRDPKSGSWYVETLDDIFEQWAHSEDLQSLLLRVANAVSVKGIYKQMPGTFNFLRKKLFFKTS
B5: N405A (protein)
chain: GFGDVGALESLRGNADLAYILSMEPCGHCLIINNVNFCRESGLRTRTGSNIDCEKLRRRFSSLHFMVEVKGDLTAKKMVLALLELAQQDHGALDCCVVVILSHGCQASHLQFPGAVYGTDGCPVSVEKIVNIFNGTSCPSLGGKPKLFFIQACGGEQKDHGFEVASTSPEDESPGSNPEPDATPFQEGLRTFDQLDAISSLPTPSDIFVSYSTFPGFVSWRDPKSGSWYVETLDDIFEQWAHSEDLQSLLLRVANAVSVKGIYKQMPGCFAFLRKKLFFKTS
B6: D330A-N405T (protein)
chain: GFGDVGALESLRGNADLAYILSMEPCGHCLIINNVNFCRESGLRTRTGSNIDCEKLRRRFSSLHFMVEVKGDLTAKKMVLALLELAQQDHGALDCCVVVILSHGCQASHLQFPGAVYGTDGCPVSVEKIVNIFNGTSCPSLGGKPKLFFIQACGGEQKDHGFEVASTSPEDESPGSNPEPDATPFQEGLRTFDQLAAISSLPTPSDIFVSYSTFPGFVSWRDPKSGSWYVETLDDIFEQWAHSEDLQSLLLRVANAVSVKGIYKQMPGCFTFLRKKLFFKTS
B7: N405T (protein)
chain: GFGDVGALESLRGNADLAYILSMEPCGHCLIINNVNFCRESGLRTRTGSNIDCEKLRRRFSSLHFMVEVKGDLTAKKMVLALLELAQQDHGALDCCVVVILSHGCQASHLQFPGAVYGTDGCPVSVEKIVNIFNGTSCPSLGGKPKLFFIQACGGEQKDHGFEVASTSPEDESPGSNPEPDATPFQEGLRTFDQLDAISSLPTPSDIFVSYSTFPGFVSWRDPKSGSWYVETLDDIFEQWAHSEDLQSLLLRVANAVSVKGIYKQMPGCFTFLRKKLFFKTS
B8: F326K (protein)
chain: GFGDVGALESLRGNADLAYILSMEPCGHCLIINNVNFCRESGLRTRTGSNIDCEKLRRRFSSLHFMVEVKGDLTAKKMVLALLELAQQDHGALDCCVVVILSHGCQASHLQFPGAVYGTDGCPVSVEKIVNIFNGTSCPSLGGKPKLFFIQACGGEQKDHGFEVASTSPEDESPGSNPEPDATPFQEGLRTKDQLDAISSLPTPSDIFVSYSTFPGFVSWRDPKSGSWYVETLDDIFEQWAHSEDLQSLLLRVANAVSVKGIYKQMPGCFNFLRKKLFFKTS
B9: T317E (protein)
chain: GFGDVGALESLRGNADLAYILSMEPCGHCLIINNVNFCRESGLRTRTGSNIDCEKLRRRFSSLHFMVEVKGDLTAKKMVLALLELAQQDHGALDCCVVVILSHGCQASHLQFPGAVYGTDGCPVSVEKIVNIFNGTSCPSLGGKPKLFFIQACGGEQKDHGFEVASTSPEDESPGSNPEPDAEPFQEGLRTFDQLDAISSLPTPSDIFVSYSTFPGFVSWRDPKSGSWYVETLDDIFEQWAHSEDLQSLLLRVANAVSVKGIYKQMPGCFNFLRKKLFFKTS
B10: D327G (protein)
chain: GFGDVGALESLRGNADLAYILSMEPCGHCLIINNVNFCRESGLRTRTGSNIDCEKLRRRFSSLHFMVEVKGDLTAKKMVLALLELAQQDHGALDCCVVVILSHGCQASHLQFPGAVYGTDGCPVSVEKIVNIFNGTSCPSLGGKPKLFFIQACGGEQKDHGFEVASTSPEDESPGSNPEPDATPFQEGLRTFGQLDAISSLPTPSDIFVSYSTFPGFVSWRDPKSGSWYVETLDDIFEQWAHSEDLQSLLLRVANAVSVKGIYKQMPGCFNFLRKKLFFKTS
B11: D327K (protein)
chain: GFGDVGALESLRGNADLAYILSMEPCGHCLIINNVNFCRESGLRTRTGSNIDCEKLRRRFSSLHFMVEVKGDLTAKKMVLALLELAQQDHGALDCCVVVILSHGCQASHLQFPGAVYGTDGCPVSVEKIVNIFNGTSCPSLGGKPKLFFIQACGGEQKDHGFEVASTSPEDESPGSNPEPDATPFQEGLRTFKQLDAISSLPTPSDIFVSYSTFPGFVSWRDPKSGSWYVETLDDIFEQWAHSEDLQSLLLRVANAVSVKGIYKQMPGCFNFLRKKLFFKTS
B12: L329K (protein)
chain: GFGDVGALESLRGNADLAYILSMEPCGHCLIINNVNFCRESGLRTRTGSNIDCEKLRRRFSSLHFMVEVKGDLTAKKMVLALLELAQQDHGALDCCVVVILSHGCQASHLQFPGAVYGTDGCPVSVEKIVNIFNGTSCPSLGGKPKLFFIQACGGEQKDHGFEVASTSPEDESPGSNPEPDATPFQEGLRTFDQKDAISSLPTPSDIFVSYSTFPGFVSWRDPKSGSWYVETLDDIFEQWAHSEDLQSLLLRVANAVSVKGIYKQMPGCFNFLRKKLFFKTS
B13: D327R (protein)
chain: GFGDVGALESLRGNADLAYILSMEPCGHCLIINNVNFCRESGLRTRTGSNIDCEKLRRRFSSLHFMVEVKGDLTAKKMVLALLELAQQDHGALDCCVVVILSHGCQASHLQFPGAVYGTDGCPVSVEKIVNIFNGTSCPSLGGKPKLFFIQACGGEQKDHGFEVASTSPEDESPGSNPEPDATPFQEGLRTFRQLDAISSLPTPSDIFVSYSTFPGFVSWRDPKSGSWYVETLDDIFEQWAHSEDLQSLLLRVANAVSVKGIYKQMPGCFNFLRKKLFFKTS

Test system: chimeric Caspase-9 polypeptide
Sequence (as listed by the source, change not shown): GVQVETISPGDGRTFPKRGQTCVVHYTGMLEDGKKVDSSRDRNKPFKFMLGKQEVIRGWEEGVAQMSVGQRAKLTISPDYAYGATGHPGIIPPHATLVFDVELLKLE
Test: Caspase mutant classes and basal activity (Table 3)
Format: cell-based, human
Conditions: class heading of Table 3; for IC50: ligand IC50

Row | Molecule | Basal Activity | IC50
1 | B1 | Similar | Similar
2 | B2 | Similar | Similar
3 | B3 | Increased | 
4 | B4 | Similar | Similar
5 | B5 | Similar | Similar
6 | B6 | Increased | 
7 | B7 | Increased | 
8 | B8 | Increased | 
9 | B9 | Increased | 
10 | B10 | Increased | 
11 | B11 | Increased | 
12 | B12 | Increased | 
13 | B13 | Increased | 
